Numbered stars: 1 amine (or outer) side, 2 acyl side, 3 side chain; on linkers, the order of the positions; unused ones are H or OH. Bridge positions count the residues as written; N and C are the ends. Side chains are listed from the residue outwards. Ends that are not written are not given here. * marks the point of attachment. C20 diacid = O=C(O)CCCCCCCCCCCCCCCCCCC(=O)*; γGlu = O=C(O)[C@H](CCC(=O)[*:2])N[*:1]; AEEA = NCCOCCOCC(=O)O
T1: rat calcitonin receptor (rat, UniProt P32214 25-516)
T1 construct: whole, on cells; Used as membranes prepared from BHK tk'ts 13 cells transiently transfected with the rat calcitonin receptor (Assay VIII); also called rCTR; rat calcitonin (a) receptor
T1 sequence (looked up): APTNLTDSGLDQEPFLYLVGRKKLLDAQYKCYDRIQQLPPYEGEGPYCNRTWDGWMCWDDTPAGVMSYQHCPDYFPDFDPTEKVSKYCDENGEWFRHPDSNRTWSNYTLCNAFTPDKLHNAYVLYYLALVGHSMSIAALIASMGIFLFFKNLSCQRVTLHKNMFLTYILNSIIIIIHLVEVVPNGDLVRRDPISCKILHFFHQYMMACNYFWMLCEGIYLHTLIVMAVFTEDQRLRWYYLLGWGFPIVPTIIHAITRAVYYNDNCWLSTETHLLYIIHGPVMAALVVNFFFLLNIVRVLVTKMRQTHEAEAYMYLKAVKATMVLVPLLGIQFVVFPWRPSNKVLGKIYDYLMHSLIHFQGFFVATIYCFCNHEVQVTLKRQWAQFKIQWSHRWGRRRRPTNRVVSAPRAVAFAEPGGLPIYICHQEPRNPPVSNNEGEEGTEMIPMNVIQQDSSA

T2: human calcitonin receptor (human, UniProt P30988 25-474)
T2 construct: whole, on cells; Used as membranes prepared from a BHK tk'ts 13 cell line stably transfected with the human calcitonin receptor (Assay VII); also called hCTR; hCT
T2 sequence (looked up): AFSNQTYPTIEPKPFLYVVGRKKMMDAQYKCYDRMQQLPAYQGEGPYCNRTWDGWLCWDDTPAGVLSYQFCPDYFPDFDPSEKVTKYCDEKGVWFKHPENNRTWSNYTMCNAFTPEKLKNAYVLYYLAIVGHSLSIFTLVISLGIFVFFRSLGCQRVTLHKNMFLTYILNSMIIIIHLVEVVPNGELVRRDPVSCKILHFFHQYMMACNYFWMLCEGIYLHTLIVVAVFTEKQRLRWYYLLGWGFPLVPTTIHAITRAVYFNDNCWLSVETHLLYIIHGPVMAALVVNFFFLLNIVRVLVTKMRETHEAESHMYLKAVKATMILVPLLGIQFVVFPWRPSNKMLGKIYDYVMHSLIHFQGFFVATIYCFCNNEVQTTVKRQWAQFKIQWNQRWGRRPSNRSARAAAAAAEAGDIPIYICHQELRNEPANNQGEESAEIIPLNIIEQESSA

T3: rat amylin receptor (rat calcitonin receptor + rat RAMP 3) (rat, UniProt P32214 25-516; Q9JJ73 23-147)
T3 construct: whole, on cells; Used as membranes prepared from BHK tk'ts 13 cells transiently transfected with rat calcitonin receptor and rat RAMP 3 (Assay VI); also called rAmylin-R; rat amylin 3(a) receptor
T3 sequence (looked up) 1: T1 sequence (looked up)
T3 sequence (looked up) 2: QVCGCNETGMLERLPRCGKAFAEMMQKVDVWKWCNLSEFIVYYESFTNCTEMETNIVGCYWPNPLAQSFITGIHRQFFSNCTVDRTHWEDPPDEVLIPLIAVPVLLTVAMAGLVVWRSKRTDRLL

B1: N^ε1-[2-[2-[2-[[(4S)-4-carboxy-4-(19-carboxynonadecanoylamino)butanoyl]amino]ethoxy]ethoxy]acetyl]-[Lys14,Arg17,Pro21,Pro27,Pro31]-h-amylin (peptide)
peptide: K([AEEA-γGlu-C20 diacid])CNTATCATQRLAKFLRHSSPNFGAIPSSTPVGSNTY-NH2
modifications: disulfide 2-7; N-terminus assumed
SMILES: CC[C@H](C)[C@H](NC(=O)[C@H](C)NC(=O)CNC(=O)[C@H](Cc1ccccc1)NC(=O)[C@H](CC(N)=O)NC(=O)[C@@H]1CCCN1C(=O)[C@H](CO)NC(=O)[C@H](CO)NC(=O)[C@H](Cc1c[nH]cn1)NC(=O)[C@H](CCCNC(=N)N)NC(=O)[C@H](CC(C)C)NC(=O)[C@H](Cc1ccccc1)NC(=O)[C@H](CCCCN)NC(=O)[C@H](C)NC(=O)[C@H](CC(C)C)NC(=O)[C@H](CCCNC(=N)N)NC(=O)[C@H](CCC(N)=O)NC(=O)[C@@H](NC(=O)[C@H](C)NC(=O)[C@@H]1CSSC[C@H](NC(=O)[C@@H](N)CCCCNC(=O)COCCOCCNC(=O)CC[C@H](NC(=O)CCCCCCCCCCCCCCCCCCC(=O)O)C(=O)O)C(=O)N[C@@H](CC(N)=O)C(=O)N[C@@H]([C@@H](C)O)C(=O)N[C@@H](C)C(=O)N[C@@H]([C@@H](C)O)C(=O)N1)[C@@H](C)O)C(=O)N1CCC[C@H]1C(=O)N[C@@H](CO)C(=O)N[C@@H](CO)C(=O)N[C@H](C(=O)N1CCC[C@H]1C(=O)N[C@H](C(=O)NCC(=O)N[C@@H](CO)C(=O)N[C@@H](CC(N)=O)C(=O)N[C@H](C(=O)N[C@@H](Cc1ccc(O)cc1)C(N)=O)[C@@H](C)O)C(C)C)[C@@H](C)O
notes: Analogue of human amylin; also called compound 74
B2: N^ε1-[2-[2-[2-[[(4S)-4-carboxy-4-(19-carboxynonadecanoylamino)butanoyl]amino]ethoxy]ethoxy]acetyl]-[Ser14,Arg17,Pro21,Pro27,Pro31]-h-amylin (peptide)
peptide: K([AEEA-γGlu-C20 diacid])CNTATCATQRLASFLRHSSPNFGAIPSSTPVGSNTY-NH2
modifications: disulfide 2-7; N-terminus assumed
SMILES: CC[C@H](C)[C@H](NC(=O)[C@H](C)NC(=O)CNC(=O)[C@H](Cc1ccccc1)NC(=O)[C@H](CC(N)=O)NC(=O)[C@@H]1CCCN1C(=O)[C@H](CO)NC(=O)[C@H](CO)NC(=O)[C@H](Cc1c[nH]cn1)NC(=O)[C@H](CCCNC(=N)N)NC(=O)[C@H](CC(C)C)NC(=O)[C@H](Cc1ccccc1)NC(=O)[C@H](CO)NC(=O)[C@H](C)NC(=O)[C@H](CC(C)C)NC(=O)[C@H](CCCNC(=N)N)NC(=O)[C@H](CCC(N)=O)NC(=O)[C@@H](NC(=O)[C@H](C)NC(=O)[C@@H]1CSSC[C@H](NC(=O)[C@@H](N)CCCCNC(=O)COCCOCCNC(=O)CC[C@H](NC(=O)CCCCCCCCCCCCCCCCCCC(=O)O)C(=O)O)C(=O)N[C@@H](CC(N)=O)C(=O)N[C@@H]([C@@H](C)O)C(=O)N[C@@H](C)C(=O)N[C@@H]([C@@H](C)O)C(=O)N1)[C@@H](C)O)C(=O)N1CCC[C@H]1C(=O)N[C@@H](CO)C(=O)N[C@@H](CO)C(=O)N[C@H](C(=O)N1CCC[C@H]1C(=O)N[C@H](C(=O)NCC(=O)N[C@@H](CO)C(=O)N[C@@H](CC(N)=O)C(=O)N[C@H](C(=O)N[C@@H](Cc1ccc(O)cc1)C(N)=O)[C@@H](C)O)C(C)C)[C@@H](C)O
notes: Analogue of human amylin; also called compound 73
B3: N^ε1-[2-[2-[2-[[(4S)-4-carboxy-4-(19-carboxynonadecanoylamino)butanoyl]amino]ethoxy]ethoxy]acetyl]-[Thr14,Arg17,Pro21,Pro27,Pro31]-h-amylin (peptide)
peptide: K([AEEA-γGlu-C20 diacid])CNTATCATQRLATFLRHSSPNFGAIPSSTPVGSNTY-NH2
modifications: disulfide 2-7; N-terminus assumed
SMILES: CC[C@H](C)[C@H](NC(=O)[C@H](C)NC(=O)CNC(=O)[C@H](Cc1ccccc1)NC(=O)[C@H](CC(N)=O)NC(=O)[C@@H]1CCCN1C(=O)[C@H](CO)NC(=O)[C@H](CO)NC(=O)[C@H](Cc1c[nH]cn1)NC(=O)[C@H](CCCNC(=N)N)NC(=O)[C@H](CC(C)C)NC(=O)[C@H](Cc1ccccc1)NC(=O)[C@@H](NC(=O)[C@H](C)NC(=O)[C@H](CC(C)C)NC(=O)[C@H](CCCNC(=N)N)NC(=O)[C@H](CCC(N)=O)NC(=O)[C@@H](NC(=O)[C@H](C)NC(=O)[C@@H]1CSSC[C@H](NC(=O)[C@@H](N)CCCCNC(=O)COCCOCCNC(=O)CC[C@H](NC(=O)CCCCCCCCCCCCCCCCCCC(=O)O)C(=O)O)C(=O)N[C@@H](CC(N)=O)C(=O)N[C@@H]([C@@H](C)O)C(=O)N[C@@H](C)C(=O)N[C@@H]([C@@H](C)O)C(=O)N1)[C@@H](C)O)[C@@H](C)O)C(=O)N1CCC[C@H]1C(=O)N[C@@H](CO)C(=O)N[C@@H](CO)C(=O)N[C@H](C(=O)N1CCC[C@H]1C(=O)N[C@H](C(=O)NCC(=O)N[C@@H](CO)C(=O)N[C@@H](CC(N)=O)C(=O)N[C@H](C(=O)N[C@@H](Cc1ccc(O)cc1)C(N)=O)[C@@H](C)O)C(C)C)[C@@H](C)O
notes: Analogue of human amylin; also called compound 75
B4: N^ε1-[(4S)-4-carboxy-4-(19-carboxynonadecanoylamino)butanoyl]-[Arg14,Arg17,Pro21,Pro27,Pro31]-h-amylin (peptide)
peptide: K([γGlu-C20 diacid])CNTATCATQRLARFLRHSSPNFGAIPSSTPVGSNTY-NH2
modifications: disulfide 2-7; N-terminus assumed
SMILES: CC[C@H](C)[C@H](NC(=O)[C@H](C)NC(=O)CNC(=O)[C@H](Cc1ccccc1)NC(=O)[C@H](CC(N)=O)NC(=O)[C@@H]1CCCN1C(=O)[C@H](CO)NC(=O)[C@H](CO)NC(=O)[C@H](Cc1c[nH]cn1)NC(=O)[C@H](CCCNC(=N)N)NC(=O)[C@H](CC(C)C)NC(=O)[C@H](Cc1ccccc1)NC(=O)[C@H](CCCNC(=N)N)NC(=O)[C@H](C)NC(=O)[C@H](CC(C)C)NC(=O)[C@H](CCCNC(=N)N)NC(=O)[C@H](CCC(N)=O)NC(=O)[C@@H](NC(=O)[C@H](C)NC(=O)[C@@H]1CSSC[C@H](NC(=O)[C@@H](N)CCCCNC(=O)CC[C@H](NC(=O)CCCCCCCCCCCCCCCCCCC(=O)O)C(=O)O)C(=O)N[C@@H](CC(N)=O)C(=O)N[C@@H]([C@@H](C)O)C(=O)N[C@@H](C)C(=O)N[C@@H]([C@@H](C)O)C(=O)N1)[C@@H](C)O)C(=O)N1CCC[C@H]1C(=O)N[C@@H](CO)C(=O)N[C@@H](CO)C(=O)N[C@H](C(=O)N1CCC[C@H]1C(=O)N[C@H](C(=O)NCC(=O)N[C@@H](CO)C(=O)N[C@@H](CC(N)=O)C(=O)N[C@H](C(=O)N[C@@H](Cc1ccc(O)cc1)C(N)=O)[C@@H](C)O)C(C)C)[C@@H](C)O
notes: Analogue of human amylin; also called compound 63

target: T1, rat calcitonin receptor; test: SPA competition with 125I-calcitonin, membranes of BHK cells with rat CTR (Assay VIII)

Binder | IC50
B1 | 109 nM
B2 | 50.3 nM
B3 | 442 nM
B4 | 124 nM

target: T2, human calcitonin receptor; test: IC50 on human CTR divided by IC50 on human amylin receptor (Assays VII/V)
Method in brief: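 IC₅₀ values were derived by one-site competition analysis of SPA counts. Cell membranes (35 ng/μL) with SPA beads were incubated with test compounds for 120 min at 25° C in Hepes buffer, pH 7.4, containing CaCl2, MgCl₂, OA and Tween20.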

Binder | Ratio hCT/hAmylin binding
B1 | 101
B2 | 51.7
B3 | 91.4
B4 | 157

target: T3, rat amylin receptor (rat calcitonin …); test: SPA competition with 125I-rat amylin, membranes of BHK cells with rat CTR + rat RAMP3 (Assay VI)

Binder | IC50
B1 | 4.89 nM
B2 | 0.283 nM
B3 | 4.03 nM
B4 | 3.48 nM

target: T1, rat calcitonin receptor; test: IC50 on rat CTR divided by IC50 on rat amylin receptor (Assays VIII/VI)

Binder | Ratio rCT/rAmylin binding
B1 | 22.3
B2 | 178
B3 | 110
B4 | 35.6
